In US20070286858A1 (Pfizer, published 2007):
Where a chain is given by its changes, count along the chain named.

Experiments:
[1] = biological target: T1, human RAGE-Fc fusion protein (human, UniProt Q15109 23-344); test: ELISA, coated hRAGE-Fc
T1 construct: also called hRAGE-Fc; huRAGE-Fc; not shown: Fc domain of human IgG
Procedure: Antibodies were purified from hybridoma supernatants using standard procedures. Purified antibodies were evaluated for binding to soluble forms of RAGE with the use of ELISA. […] After washing and blocking with PBS containing 1% BSA and 0.05% Tween-20, 100 ul of sample (samples were in several forms: diluted immune serum, hybridoma supernatants, or purified antibodies, as indicated) was added and incubated for 1 hour at room temperature. The plates were washed with PBS, pH 7.2 and bound anti-RAGE antibodies were detected with the use of peroxidase-conjugated goat, anti-mouse IgG (H+L) (IgG) (Pierce, Rockford, Ill.) followed by incubation with the substrate TMB (BioFX Laboratories Owings Mills, Md. Laboratories). Absorbance values were determined at 450 nm in a spectrophotometer. The concentrations of monoclonal antibodies were determined with the use of peroxidase-labeled goat, anti-mouse IgG (Fcγ) (Pierce Rockford, Ill.) and a standard curve was generated by a purified, isotype-matched mouse IgG.

baboon RAGE = biological target: T2, baboon RAGE (baboon (Papio cyanocephalus), UniProt Q15109 23-404 (human entry)); test: IHC, septic baboon lung, 1 µg/ml
T2 construct: On transfected 293 cells or endogenous in baboon lung sections; also called 293-baboon RAGE; RAGE in baboon lung
T2 chain: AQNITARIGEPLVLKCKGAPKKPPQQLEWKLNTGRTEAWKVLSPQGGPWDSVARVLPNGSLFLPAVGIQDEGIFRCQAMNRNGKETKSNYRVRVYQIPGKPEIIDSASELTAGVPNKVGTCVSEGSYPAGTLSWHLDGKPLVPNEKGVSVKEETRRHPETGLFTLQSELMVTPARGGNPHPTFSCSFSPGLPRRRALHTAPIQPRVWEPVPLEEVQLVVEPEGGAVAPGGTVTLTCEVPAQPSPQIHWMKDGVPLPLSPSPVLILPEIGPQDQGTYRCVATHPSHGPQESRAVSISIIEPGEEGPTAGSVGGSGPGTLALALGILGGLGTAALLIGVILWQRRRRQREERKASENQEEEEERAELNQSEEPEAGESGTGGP
Procedure: (§1) Immunohistochemistry for RAGE lung tissues isolated from baboon, cynomolgus monkey, rabbit or Chinese Hamster Ovary cells over-expressing human RAGE or control CHO cells were performed using standard techniques. RAGE antibodies and rat IgG2b isotype control or mouse isotype control were used at […]. […] Following detection with HRP and Alexa Fluor 594, Alexa Fluor 488 or anti-biotin conjugated with FITC, sections were also stained with 4′-6-Diamidino-2-phenylindole (DAPI).
(§2) CHO cells stable transfected with an expression vector that expresses DNA encoding hRAGE is used as a positive control.

murine RAGE, full length = biological target: T3, murine RAGE, full length (mouse, UniProt Q62151 23-402); test: FACS, 293 cells infected with murine RAGE adenovirus
T3 construct: Expressed on 293 cells; also called mRAGE; 293-murine RAGE
T3 chain: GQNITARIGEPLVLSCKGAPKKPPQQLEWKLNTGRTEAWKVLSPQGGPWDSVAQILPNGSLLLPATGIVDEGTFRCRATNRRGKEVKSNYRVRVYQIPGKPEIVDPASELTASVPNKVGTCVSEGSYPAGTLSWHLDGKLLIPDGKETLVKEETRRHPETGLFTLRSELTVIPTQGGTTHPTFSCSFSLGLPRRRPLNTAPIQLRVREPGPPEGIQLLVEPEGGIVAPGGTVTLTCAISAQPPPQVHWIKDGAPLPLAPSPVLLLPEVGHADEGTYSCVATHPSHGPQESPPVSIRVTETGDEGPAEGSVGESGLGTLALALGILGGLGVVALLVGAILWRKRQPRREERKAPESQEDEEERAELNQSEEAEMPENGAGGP
Procedure: Human 293 cells were infected with the human and murine RAGE adenovirus. Infected cells were suspended in PBS containing 1% BSA at a density of 4×10⁴ cells/ml. Cells were incubated with 100 ul of sample (diluted immune sera, hybridoma supernatants or purified antibodies) for 30 min at 4° C. After washing, cells were incubated with PE-labeled goat, anti-mouse, IgG, F(ab′)₂ (DAKO Corporation GlostrupDenmark) for 30 min at 4° C. in the dark. Cell-associated fluorescence signals were measured by a FACScan flow cytofluorometer (Becton Dickinson) using 5000 cells per treatment. Propidium iodide was used to identify dead cells, which were excluded from the analysis.

human RAGE, full length = biological target: T4, human RAGE, full length (human, UniProt Q15109 23-404); test: IHC, CHO cells expressing hRAGE, 1 µg/ml
T4 construct: Expressed on 293 or CHO cells, or endogenous in human lung sections; also called hRAGE; cell-surface hRAGE
Procedure: as §1, §2

[2] = biological target: T5, murine RAGE-strep tag fusion protein (mouse, UniProt Q62151 23-343); test: ELISA, mRAGE-strep
T5 construct: also called mRAGE-strep; mRAGE-SA
T5 chain: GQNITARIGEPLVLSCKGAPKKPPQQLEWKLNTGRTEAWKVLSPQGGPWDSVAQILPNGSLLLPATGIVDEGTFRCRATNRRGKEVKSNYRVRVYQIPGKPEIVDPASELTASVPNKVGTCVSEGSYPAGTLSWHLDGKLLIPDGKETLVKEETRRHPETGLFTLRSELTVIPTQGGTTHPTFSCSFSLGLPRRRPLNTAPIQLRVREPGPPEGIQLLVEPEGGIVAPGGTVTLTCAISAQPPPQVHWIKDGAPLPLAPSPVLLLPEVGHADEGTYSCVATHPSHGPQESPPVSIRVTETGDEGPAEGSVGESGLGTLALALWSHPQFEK

cynomolgus monkey RAGE = biological target: T6, cynomolgus monkey RAGE (cynomolgus monkey (Macaca fascicularis), UniProt Q15109 23-404 (human entry)); test: IHC, normal monkey lung, 5 µg/ml
T6 construct: On transfected 293 cells or endogenous in monkey lung sections; also called 293-cyno monkey RAGE; RAGE in monkey lung
T6 chain: T2 chain with R347G
Procedure: as §1, §2

binding result [1]: binds
binding result (baboon RAGE): binds
binding result (murine RAGE, full length): binds
binding result (human RAGE, full length): binds
binding result [2]: binds
binding result (cynomolgus monkey RAGE): binds
B1: XT-H1 (antibody, mouse IgG1, V domains shown)
VH: QVQLKESGPGLVAPSQSLSITCTISGFSITSYGVHWVRQPPGKGLEWLVVIWSDGRTTYNSTLKSRLSISKDNSKSQVFLKMNSLQTDDTAMYYCVRHGGYFPYAMDYWGQGTSVTVSS
VL: DIQMTQSPSSLSTSLGGKVTITCKASQDINKFIAWYQHTPGKGPRLFIYYTSTLQPGIPSRFSGNGSGRDYSFSISNLEPEDIATYYCLQYDNMYTFGGGTKLEIK
notes: also called 1hRAGEP3/6; murine anti-huRAGE monoclonal antibody XT-H1
